Measurements taken from the supplement of paper PMC9170038.

Test system: MS2 coat protein
Assay: apparent KD of MS2 coat protein; higher = weaker reporter binding
Details: Eterna round: R107
In short: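 Values are apparent KD, taken as the median for each design of fits to normalised binding curves from individual clusters. The designed RNA switches were transcribed on-chip from Illumina sequencing clusters and exposed to SNAP-549-labelled MS2 coat protein at twofold increasing amounts from 0.7 or 1.5 nM to 3 µM. Titration used 100 mM Tris-HCl pH 7.5, 80 mM KCl and 4 mM MgCl2, without or with constant ligand.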

[1] = input ligand: theophylline 20 uM
[2] = input ligand: theophylline 2 mM
[3] = input ligand: tryptophan 2.4 mM

Sequence	apparent KD of MS2 coat protein (input ligand: arginine 13.2 mM)	apparent KD of MS2 coat protein (input ligand: none)	apparent KD of MS2 coat protein [1]	apparent KD of MS2 coat protein [2]	apparent KD of MS2 coat protein [3]
UGACAUUGCUCAGAUACCAGACAUGAGCAUCAGCCAUGUGCCAACAAGUACAAAAUAAAAGUCCCUUGGCAGCUGAGCAAUGUCU [TheoBX 21 #MS2Left #AlternativeMS2 #Theo2]	0.0114 µM	0.00988 µM	0.0113 µM	0.0291 µM	0.0106 µM
ACAUGAGGAUCACCCAUGUAAAUCCUCGAUACCAGCCAAAGGAGAGGCCCUUGGCAGCGGAAAGGCCGGGUAUAAAUGUCCGGCC	0.0716 µM		0.151 µM		0.125 µM
AGACAUGAGGAUCACCCAUGUAGUAUGGAUACCAGAUCCAGAUUUAUCCCUUGGCAGCUGUGGUACAGUGAUGGAUUGCUCCUAG [Exclusion - Theophylline A (Freestyle 9)]	0.0304 µM		0.052 µM		0.0327 µM
UCUCAAGGCCGCUCGGUGCUCCCUGGUGAUACCAGCCAUAUAUCCGGCCCUUGGCAGCACAUGAGGAUCACCCAUGUAGCAGGCG [Sorimaat]	0.018 µM	0.024 µM	0.0416 µM	0.00854 µM	0.0281 µM
GUAUCUAUGUGAAAUAGAUAUAUAACUGAAGGAGCGUCAUUAAGGACAGGUAGGUCGCAGAGCACCUGAGGAUCACCCAGGUAGG [Arg A SS s1]	0.027 µM	0.0257 µM	0.027 µM	0.0316 µM	0.0272 µM
ACAUGAGGAUCACCCAUGUAAUGGCACGAUACCAGCUGAUCCCGUGGCCCUUGGCAGCGUCCGGUGUGGUCCGGCGGGUUGGACG [LLLMULLIN]	0.0145 µM	0.0145 µM	0.0226 µM	0.0345 µM	0.0174 µM
AUAAGUAAUGUCUCGUGUAUUAUUACAGAUACCAGACUAUCCUAUGUCCCUUGGCAGCUGGAUUACAUGAGGAUCACCCAUGUUG [#10 Exclusion-TheophyllineA]	0.0215 µM		0.0253 µM		0.022 µM
GUAUACAUGAGGAUCACCCAUGUACCAGAAGGAGCGCUGGAAACAGCAGGUAGGUCGCUGGUAGGUCCUCUAUCUAGACGUUCUA [EAA NP+V+V2 #5]	0.0281 µM	0.176 µM	0.214 µM	0.195 µM	0.079 µM
AGUGUUAUAACUGAUACCAGACUCUCAUGUUUACAUGAGGAUCACCCAUGUUAUUUCUUUGUCCCUUGGCAGCAGAAUUAACACA [JR_SSTheophyB_Sub010]	0.152 µM		0.175 µM		0.215 µM
UCAUGCAGGUCGGCCGCCACUACACACAUGAGGAUCACCCAUGUAGUUACUGGGUGAAGUGGCAGUAGGACCGGGACCUGCAUAC [Brourdmod09]	0.0891 µM	0.591 µM	0.604 µM	0.342 µM	0.078 µM
UAAUCCGGUCCUCGAUAACAUGGGUGAAUACGAGGACCGGUACGGCCGCCACUCGAUAACAUGAGGAUCACCCAUGUAAUAAUAA [|T'-M'-Trp-Ms2|_Design15]	0.0382 µM		0.111 µM	0.0736 µM	
ACGUAAAGCAGAAGGAGCGUCUUAAUUCUACAUGAGGAUCACCCAUGUUUACAUUGAAUAUGACAGGUAGGUCGCUGAAGUACGA [JR_SSArginiB_Sub001]	0.0235 µM	0.0339 µM	0.0275 µM	0.0308 µM	0.0238 µM
AUAACAUGAGGAUCACCCAUGUAAGCUGAAGGAGCGGACGAAAGUCCAGGUAGGUCGCAGCGUUCCUUCACCUCAUGAGAAGGAG [SSArg-A #30 with U all better]	0.0178 µM	0.0225 µM	0.0375 µM	0.024 µM	0.0216 µM
GAACAUAAGGAUAGUAUAAUGACUACAGAAGGAGCGUCAGGAAGGACAGGUAGGUCGCUGGAAGACAUGAGGAUCACCCAUGUUU [Arg A SS t2]	0.0256 µM	0.0228 µM	0.0353 µM	0.0245 µM	0.0194 µM
GGGAAAGGAGAAGAUACCAGCCGCCUCACAAGUCUACACUACAUGAGGAUCACCCAUGUGGGCCCUUGGCAGCUUGACCGCGAAA [theeternabot_exclusion_MS2_Theo_B_20]	0.0232 µM	0.0274 µM	0.0477 µM	0.042 µM	0.0393 µM
UCACGACGCAACGUGAGAUAAUGAACAGAAGGAGCGAGGAGAGCCUCAGGUAGGUCGCUGACAUGAGGAUCACCCAUGUAUUACA [Same State Arginine A GF6]	0.0638 µM	0.0828 µM	0.0842 µM	0.08 µM	0.0652 µM
